# Patent US20250257130A1 (NONA BIOSCIENCES SUZHOU, published 2025)
# Numbering of substitutions follows the chain as printed.
# B1: PR005340 (antibody, human IgG1, V domains shown)
# VH: EVQLVESGGGLVKPGGSLRLSCAASGFTFSDYYMSWIRQAPGKGLEWISYISSSGSTIHYADSVKGRFTISRDNAKNSLYLQMNSLRAEDTAIYYCARDIPSSSSDWVSLQFDYWGQGTLVTVSS
# notes: HCAb (heavy chain-only, human IgG1 Fc), no light chain
# B2: PR007417 (antibody, V domains shown)
# VH: B1 VH with Y32F, I58R, H59Y, S109D
# notes: bivalent form (HCAb) variant of PR005340, no light chain
# B3: PR007424 (antibody, V domains shown)
# VH: B1 VH with S52D, S56R, T57P, I58L, H59A, I100M
# notes: as for B2
# B4: PR005338 (antibody, human IgG1, V domains shown)
# VH: B1 VH with S56T, A88T, I93V, I100A, S104N
# notes: as for B1
# B5: PR005344 (antibody, human IgG1, V domains shown)
# VH: EVQLVESGGGLVKPGGSLRLSCAASGFTFSDYYMSWIRQAPGKGLEWISYISNSSSSISYANSVKGRFTVSRDNAKNSLYLQMNSLRAEDTALYYCARSPRGAFYEDFDYWGQGTLVTVSS
# notes: as for B1
# B6: PR005352 (antibody, human IgG1, V domains shown)
# VH: EVQLVESGGGLVKPGGSLRLSCAASGFTFSDYYMSWIRQAPGKGLEWISYISSSGGSIYYADSVKGRFTISRDNAKNSLYLQMNRLRAEDTALYYCARTPPSSNNWYEDFDYWGQGALVTVSS
# notes: as for B1
# B7: PR005349 (antibody, human IgG1, V domains shown)
# VH: B5 VH with G102S
# notes: as for B1
# Target: T1, Human ROR1-ECD-his (Acro Biosystems RO1-H522y) (human, UniProt Q01973 30-406)
# T1 construct: extracellular domain; bought protein; also called hROR1-ECD-his; hu-ROR1-ECD-his
# Assay: BLI in-tandem, row = 1st Ab; competitor (2nd Ab): PR000374
# Description: (§1) To determine if anti-ROR1 antibodies bind to human ROR1 on different or approximate binding epitopes, the ForteBio Octet® RED96e platform was used to perform epitope competition experiments on the anti-ROR1 antibodies. Human ROR1 protein (Acrobiosystems, #RO1-H522y) was biotinylated and then captured onto SA biosensors (ForteBio, #18-5020) to reach loading level of 0.3-0.4 nm. The in-tandem competition assay format was applied and it contains two association steps. Firstly, the antigen-loaded biosensors bind to each antibody (a.k.a, First antibody, 1st Ab) with a saturating concentration of 200 nM for 180 seconds to reach equilibrium and then secondly bind to the competing antibodies (a.k.a, Second antibody, 2nd Ab) of 200 nM for 180 seconds. The second binding signals were recorded as the 100% signal of each antibody when the first antibodies were replaced by kinetics buffer. All the binding data were analyzed using ForteBio Data Analysis 11.0 software. The inhibition rate is calculated by the following formula: […]
# T1 sequence (Q01973 30-406): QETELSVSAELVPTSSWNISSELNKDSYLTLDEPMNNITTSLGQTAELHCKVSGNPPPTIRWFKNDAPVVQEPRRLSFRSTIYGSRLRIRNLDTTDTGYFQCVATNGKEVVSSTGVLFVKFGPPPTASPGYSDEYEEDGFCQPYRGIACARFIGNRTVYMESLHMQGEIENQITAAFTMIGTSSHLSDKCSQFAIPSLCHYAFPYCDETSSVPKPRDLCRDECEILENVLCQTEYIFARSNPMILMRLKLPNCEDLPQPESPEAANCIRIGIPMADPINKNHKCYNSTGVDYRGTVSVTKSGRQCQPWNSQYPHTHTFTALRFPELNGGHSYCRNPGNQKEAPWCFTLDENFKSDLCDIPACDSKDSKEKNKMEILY
row,Binder,Inhibition (%)
1,B1,-0.17
2,B2,10.2
3,B3,-0.73
4,B4,-3.02

# Target: T2, cynomolgus ROR1 on CHO-K1-cynoROR1 cells (cynomolgus monkey, UniProt A0A2K5WTX7 30-937)
# T2 construct: whole, on cells
# Assay: flow cytometry on CHOK1-cynoROR1 cells, MFI (APC-A Median) [top panel]
# Method: (§2) Binding of recombinant anti-ROR1 antibodies to human or cynomolgus ROR1-overexpressing cells was tested by flow cytometry. In this example, ROR1-expressing cell lines are HEK293T cell lines that had been transfected to express human ROR1 on the surface (HEK293T-hu ROR1, KYINNO BIOTECHNOLOGY CO., LTD, Catalog #KC-1018), CHO-K1 cell lines that had been transfected to express cynomolgus ROR1 (CHOK1-cyno ROR1), PANC-1 (ATCC, catalog: CRL-1469) or A549 cell lines (Shanghai Institute of Biochemistry and Cell Biology, Chinese Academy of Sciences).
# (§3) In brief, anti-ROR1 antibodies were serially diluted in staining buffer (PBS containing 2% FBS). Antibody solution was incubated with 1×10⁵ cells at 4° C. for 1 hour. […] After 1-hour incubation at 4° C., cells were washed twice with staining buffer and subjected to flow cytometry. PR000374 (Bench marker 1) and non-relevant IgG isotype control (Crownbio) were used as positive and negative controls, respectively.
row,Binder,EC50 (read off the curve) [nM]
1,B1,~3

# Target: T3, human ROR1 on cells (HEK293T-hROR1, PANC-1, A549) (human, UniProt Q01973 30-937)
# T3 construct: whole, on cells; one molecule for the three cell lines; also called huROR1; cell surface ROR1
# Assay: flow cytometry on PANC-1 cells, MFI (Median-APC) [bottom panel, letter not given]
# T3 sequence (Q01973 30-937): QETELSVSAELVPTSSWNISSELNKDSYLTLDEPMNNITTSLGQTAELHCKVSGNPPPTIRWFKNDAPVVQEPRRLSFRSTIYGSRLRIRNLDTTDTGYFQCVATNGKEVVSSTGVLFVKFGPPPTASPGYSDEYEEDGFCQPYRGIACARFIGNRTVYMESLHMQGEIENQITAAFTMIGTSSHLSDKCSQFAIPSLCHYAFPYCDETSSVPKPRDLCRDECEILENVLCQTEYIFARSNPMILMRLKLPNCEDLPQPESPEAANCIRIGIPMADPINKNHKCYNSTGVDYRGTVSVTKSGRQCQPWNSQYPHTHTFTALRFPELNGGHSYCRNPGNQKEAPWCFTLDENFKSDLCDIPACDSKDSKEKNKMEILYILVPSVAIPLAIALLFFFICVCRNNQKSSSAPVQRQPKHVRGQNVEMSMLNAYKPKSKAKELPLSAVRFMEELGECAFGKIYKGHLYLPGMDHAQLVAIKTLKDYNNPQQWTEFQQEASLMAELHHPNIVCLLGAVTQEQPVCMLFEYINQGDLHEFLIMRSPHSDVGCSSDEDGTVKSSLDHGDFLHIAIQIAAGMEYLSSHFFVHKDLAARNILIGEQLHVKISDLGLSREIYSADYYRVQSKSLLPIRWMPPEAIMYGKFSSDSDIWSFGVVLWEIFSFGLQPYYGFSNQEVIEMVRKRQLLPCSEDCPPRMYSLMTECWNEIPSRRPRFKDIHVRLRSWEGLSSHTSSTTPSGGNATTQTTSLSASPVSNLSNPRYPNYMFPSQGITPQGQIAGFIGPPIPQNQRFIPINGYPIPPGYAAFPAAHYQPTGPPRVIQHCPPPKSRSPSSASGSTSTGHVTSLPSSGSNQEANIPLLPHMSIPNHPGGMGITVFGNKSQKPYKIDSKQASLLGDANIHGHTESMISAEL
row,Binder,EC50 (read off the curve) [nM]
1,B1,~2
2,B3,~0.6

# Target: T1, Human ROR1-ECD-his (Acro Biosystems …)
# Assay: BLI in-tandem, row = 1st Ab; competitor (2nd Ab): PR007424
# Description: as §1
row,Binder,Inhibition (%)
1,B1,106
2,B2,111
3,B3,107
4,B4,102

# Target: T3, human ROR1 on cells (HEK293T-hROR1, …)
# Assay: flow cytometry on PANC-1 cells, MFI (FITC-A Median)
# Method: as §2, §3
row,Binder,EC50 (read off the curve) [nM]
1,B4,~7
2,B5,~20

# Target: T3, human ROR1 on cells (HEK293T-hROR1, …)
# Assay: flow cytometry on PANC-1 cells, MFI (APC-A Median)
# Method: as §2, §3
row,Binder,EC50 (read off the curve) [nM]
1,B1,~2

# Target: T3, human ROR1 on cells (HEK293T-hROR1, …)
# Assay: flow cytometry on PANC-1 cells, MFI (Median-APC) [top panel]
row,Binder,EC50 (read off the curve) [nM]
1,B1,~3

# Target: T4, hu-ROR2-ECD-his (Acrobiosystems RO2-H52E5) (human, UniProt Q01974 34-403)
# T4 construct: extracellular domain; bought protein; also called Human ROR2 his-tagged protein; Human ROR2, His Tag
# Assay: BLI, antibody on AHC sensor, ROR2-His in solution
# Method: In the example, binding kinetics of anti-ROR1 antibodies to soluble ROR2 protein were analyzed by using Bio-Layer Interferometry (BLI) analysis on Fortebio Octet Red384 instrument (Fortebio). […] The captured biosensors were then dipped in wells containing 2-fold serial dilutions of antigen proteins to detect association signals, followed by dissociation steps in wells containing 1× kinetic buffer. Human ROR2 his-tagged protein (Acrobiosystems, #RO2-H52E5) was diluted from 600 nM to 37.5 nM; the association phase was 180 seconds, and the dissociation phase was 180 seconds. The sensorgrams were recorded and the reference signals were subtracted before curve fitting using ForteBio Data Analysis 11.0 software. Association rates (kₒₙ) and dissociation rates (kdis) were calculated using a simple one-to-one Langmuir binding model. The equilibrium dissociation constant (KD) was calculated as the ratio of kdis/kₒₙ.
# T4 sequence (Q01974 34-403): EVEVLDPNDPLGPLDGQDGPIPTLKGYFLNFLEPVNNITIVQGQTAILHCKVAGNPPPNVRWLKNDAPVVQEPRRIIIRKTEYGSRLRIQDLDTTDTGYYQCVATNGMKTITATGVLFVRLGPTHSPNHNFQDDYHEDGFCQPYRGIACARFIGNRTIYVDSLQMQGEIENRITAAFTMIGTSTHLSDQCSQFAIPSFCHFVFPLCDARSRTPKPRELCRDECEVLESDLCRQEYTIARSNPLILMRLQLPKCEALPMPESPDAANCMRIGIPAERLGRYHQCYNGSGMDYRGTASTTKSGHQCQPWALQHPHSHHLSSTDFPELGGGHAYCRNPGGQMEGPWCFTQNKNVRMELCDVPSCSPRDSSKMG
row,Binder,binding result
1,B1,no binding (tested: 37.5-600 nM)
2,B2,no binding (tested: 37.5-600 nM)
3,B3,no binding (tested: 37.5-600 nM)
4,B4,no binding (tested: 37.5-600 nM)

# Target: T3, human ROR1 on cells (HEK293T-hROR1, …)
# Assay: flow cytometry on PANC-1 cells, MFI (Median-APC) [middle panel, letter not given]
row,Binder,EC50 (read off the curve) [nM]
1,B1,~2
2,B2,~0.8

# Target: T3, human ROR1 on cells (HEK293T-hROR1, …)
# Assay: flow cytometry, PANC-1 cells
# Method: as §3
row,Binder,Max
1,B1,17500
2,B4,12700
3,B6,23300
4,B5,12400
5,B7,27100

# Target: T2, cynomolgus ROR1 on CHO-K1-cynoROR1 cells
# Assay: flow cytometry, CHO-K1-cynoROR1 cells
# Method: as §2, §3
row,Binder,Max
1,B1,36400
2,B4,33300
3,B5,30700

# Target: T1, Human ROR1-ECD-his (Acro Biosystems …)
# Assay: BLI in-tandem, row = 1st Ab; competitor (2nd Ab): PR005338
# Description: as §1
row,Binder,Inhibition (%)
1,B1,106
2,B2,114
3,B3,108
4,B4,104

# Target: T2, cynomolgus ROR1 on CHO-K1-cynoROR1 cells
# Assay: flow cytometry on CHOK1-cynoROR1 cells, MFI (APC-A Median) [middle panel, letter not given]
# Method: as §2, §3
row,Binder,EC50 (read off the curve) [nM]
1,B4,~8
2,B5,~10

# Target: T3, human ROR1 on cells (HEK293T-hROR1, …)
# Assay: flow cytometry, PANC-1 cells
# Remark: another data set of the same source
# Method: as §3
# Binding activity of the variants to PANC-1 cells were tested using the same method described in example 5.1. The results were shown in FIGS. 7-8 and Table 11 and Table 12.
row,Binder,TOP
1,B1,84900
2,B2,83800
3,B3,70800

# Target: T1, Human ROR1-ECD-his (Acro Biosystems …)
# Assay: BLI in-tandem, row = 1st Ab; competitor (2nd Ab): PR007417
# Description: as §1
row,Binder,Inhibition (%)
1,B1,109
2,B2,113
3,B3,111
4,B4,108

# Target: T1, Human ROR1-ECD-his (Acro Biosystems …)
# Assay: BLI in-tandem, row = 1st Ab; competitor (2nd Ab): PR005340
# Description: as §1
row,Binder,Inhibition (%)
1,B1,109
2,B2,116
3,B3,111
4,B4,108

# Target: T3, human ROR1 on cells (HEK293T-hROR1, …)
# Assay: flow cytometry on PANC-1 cells, MFI (FITC-A Median) [continued) C]
# Method: as §2, §3
row,Binder,EC50 (read off the curve) [nM]
1,B6,~9
2,B7,~10

# Target: T1, Human ROR1-ECD-his (Acro Biosystems …)
# Assay: BLI, antibody on AHC sensor, ROR1-His 5-80 nM in solution
# Method: The captured biosensors were then dipped in wells containing 2-fold serial dilutions of antigen proteins to detect association signals, followed by dissociation steps in wells containing 1× kinetic buffer. Human ROR1 hits-tagged protein (Acrobiosystems, #RO1-H522y) was diluted from 80 nM to 5 nM; the association phase was 180 seconds, and the dissociation phase was 600 seconds. The sensorgrams were recorded and the reference signals were subtracted before curve fitting using ForteBio Data Analysis 11.0 software. Association rates (kₒₙ) and dissociation rates (kdis) were calculated using a simple one-to-one Langmuir binding model. The equilibrium dissociation constant (KD) was calculated as the ratio of kdis/kₒₙ.
Binder,Kd [nM],koff [s⁻¹],kon [M⁻¹ s⁻¹]
B1,1.2,0.000171,143000
B2,0.18,4.86e-05,271000
B3,1.01,0.000284,281000
B4,2.4,0.000316,132000
